{"source": "patent US20250057128A1", "about": "“HUMANIZED MOUSE MODELS” (The Jackson Laboratory, priority 2021, published 2025)", "system": "NSG-SGM3×IL15 mice humanized with human PBMCs", "assay": "Cytokine release syndrome (CRS) induction in PBMC-humanized mice, serum cytokine levels", "type": "in vivo, mouse", "description": "FIGS. 9A-9C show comparisons of TNF (FIG. 9A), IL-6 (FIG. 9B), and IL-2 (FIG. 9C) levels in NSG-SGM3 mice and NSG-SGM3×IL15 mice engrafted with 5×10^6 human PBMCs per mouse.\nFIGS. 10A-10C show comparisons of IFN-γ (FIG. 10A), TNF (FIG. 10B), and IL-6 (FIG. 10C) levels in NSG-SGM3 mice and NSG-SGM3×IL15 mice engrafted with 1×10^6 or 2×10^6 human PBMCs per mouse, with two different doses of irradiation (150 and 175 cGy).\nNSG-SGM3×IL15 and NSG-SGM3 mice humanized with human PBMCs and then dosed with various drugs to induce cytokine release syndrome (CRS). Briefly, the mice were irradiated (100 cGy) and administered PBS, OKT3, Anti-CD28, or a CD19×CD3 BiTE.\nThe use of lower levels of PBMCs for humanization was also tested. Briefly, NSG-SGM3×IL15 and NSG-SGM3 mice were irradiated (150 cGy or 175 cGy) and administered human PBMCs intravenously (1×10^6/mouse or 2×10^6/mouse) on day 0. On day 12, mice were dosed with PBS or OKT3 and serum cytokine levels were analyzed."}
{"substance": "OKT3: drug dosed to induce cytokine release syndrome; known to induce cytokine release", "values": [{"measurement": "serum cytokine levels (TNF, IL-6, IL-2)", "setting": "NSG-SGM3×IL15 mice as compared to NSG-SGM3 mice, irradiated 100 cGy, 5×10^6 human PBMCs per mouse, FIGS. 9A-9C", "value": "higher cytokine levels"}, {"measurement": "serum cytokine levels (IFN-γ, TNF, IL-6)", "setting": "irradiated 150 cGy or 175 cGy, 1×10^6 or 2×10^6 human PBMCs per mouse, dosed on day 12, drug vs PBS control, FIGS. 10A-10C", "value": "greater difference between the drug (OKT3) and control (PBS)"}]}
